In the experiment the target is T1, GST-SIK1ΔN (Arabidopsis thaliana, UniProt O24527 249-836).
T1 sequence (looked up): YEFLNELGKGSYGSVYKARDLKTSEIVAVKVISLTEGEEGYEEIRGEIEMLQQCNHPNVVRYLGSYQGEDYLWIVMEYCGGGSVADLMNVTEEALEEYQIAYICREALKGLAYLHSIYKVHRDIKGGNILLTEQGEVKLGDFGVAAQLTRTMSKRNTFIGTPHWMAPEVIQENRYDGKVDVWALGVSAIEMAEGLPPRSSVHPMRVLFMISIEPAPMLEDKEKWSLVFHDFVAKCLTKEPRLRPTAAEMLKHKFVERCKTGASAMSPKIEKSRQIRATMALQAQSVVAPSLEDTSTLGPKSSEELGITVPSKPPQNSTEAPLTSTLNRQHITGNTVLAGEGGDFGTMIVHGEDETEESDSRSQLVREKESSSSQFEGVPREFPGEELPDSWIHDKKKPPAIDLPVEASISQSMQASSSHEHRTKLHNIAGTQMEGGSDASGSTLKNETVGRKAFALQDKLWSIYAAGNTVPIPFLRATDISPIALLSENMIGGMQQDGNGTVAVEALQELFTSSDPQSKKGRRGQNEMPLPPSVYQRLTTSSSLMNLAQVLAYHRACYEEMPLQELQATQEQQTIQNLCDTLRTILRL
Nature of the experiment: pull-down.

B1: MBP-BIK1 (enzyme, Arabidopsis thaliana, UniProt O48814 1-395, looked up)
chain: MGSCFSSRVKADIFHNGKSSDLYGLSLSSRKSSSTVAAAQKTEGEILSSTPVKSFTFNELKLATRNFRPDSVIGEGGFGCVFKGWLDESTLTPTKPGTGLVIAVKKLNQEGFQGHREWLTEINYLGQLSHPNLVKLIGYCLEDEHRLLVYEFMQKGSLENHLFRRGAYFKPLPWFLRVNVALDAAKGLAFLHSDPVKVIYRDIKASNILLDADYNAKLSDFGLARDGPMGDLSYVSTRVMGTYGYAAPEYMSSGHLNARSDVYSFGVLLLEILSGKRALDHNRPAKEENLVDWARPYLTSKRKVLLIVDNRLDTQYLPEEAVRMASVAVQCLSFEPKSRPTMDQVVRALQQLQDNLGKPSQTNPVKDTKKLGFKTGTTKSSEKRFTQKPFGRHLV
For the molecule B1, the binding result is listed as “binds”.

The record behind these values is article PMC6279242 (Cell host & microbe, 2018).
